From patent publication EP0969015A2, “Peptide diagnostic markers for human disorders” (Ortho-Clinical Diagnostics, Inc., priority 1998, dated 2000)

How the values were obtained:
[1] = Stability of peptides in urine samples; conditions: compared with the gluten/casein related peptides; not studied in a systematic manner
[2] = relative to morphine; cited from earlier work

## NH4-Tyr AlaPheGluValValGly-COOH (H-YAFEVVG-OH) [deltorphin II]
[1]
  stability in urine: more stable in urine than the gluten/casein related peptides

## NH4-TyrAlaPheGlyTyrProSer-COOH [dermorphin]
[2]
  opiate activity: 1000 times
[1]
  stability in urine: more stable in urine than the gluten/casein related peptides
